Experimental data as given in patent publication US20240383983A1 (ABL BIO, published 2024).
Blank lines part the entries; values can stand above or below the binder they belong to.

Assays:
[1] = molecular target: T1, human B7-H4 expressed on cells (CHOK-1 B7-H4, SK-BR3, CAMA-1, MDA-MB-468, MX-1, OVCAR-3) (human, UniProt Q7Z7D3 25-282); experiment: FACS on MDA-MB-468 cells, 100 nM antibody, FITC anti-mouse IgG Fc detection (FL1-H)
T1 construct: whole, on cells; also called B7-H4 expressed cell line; B7-H4 positive cancer cell lines
T1 sequence (looked up): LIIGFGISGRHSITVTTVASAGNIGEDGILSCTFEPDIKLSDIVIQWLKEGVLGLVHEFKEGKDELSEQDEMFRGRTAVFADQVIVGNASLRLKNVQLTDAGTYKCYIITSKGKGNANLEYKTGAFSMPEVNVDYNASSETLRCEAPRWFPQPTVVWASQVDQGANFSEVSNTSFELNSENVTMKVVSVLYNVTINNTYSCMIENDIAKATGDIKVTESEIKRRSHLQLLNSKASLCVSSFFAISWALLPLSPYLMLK
Method: (§1) To evaluate the antigen binding property, the mouse antibody candidates generated according to Preparation Example 1-1 were analyzed for their bindings to B7-H4 expressed cells (SK-BR3, CAMA-1 and MDA-MB-468) or B7-H4 negative expressed cell (PANC-1). Briefly, each cells were treated with the 100 nM of indicated antibodies at 4° C. for 1 hr. After washing by FACS buffer (1% BSA in PBS), Cells were incubated with the FITC anti-mouse IgG Fc antibody at 4° C. for 1 hr and then subjected to FACS analysis. As shown FIG. 1, anti-B7-H4 mouse antibodies bound to B7-H4 expressed SK-BR3, CAMA-1 and MDA-MB-468 cell lines but not B7-H4 negative PANC-1. […] Based on the ranking results, 16E3H3 clone was selected for humanization.

[2] = molecular target: T1, human B7-H4 expressed on cells (CHOK-1 …); experiment: FACS on CAMA-1 cells, 100 nM antibody, FITC anti-mouse IgG Fc detection (FL1-H)
Method: as §1

[3] = molecular target: T1, human B7-H4 expressed on cells (CHOK-1 …); experiment: FACS on SK-BR3 cells, 100 nM antibody, FITC anti-mouse IgG Fc detection (FL1-H)
Method: as §1

B7-H6 = molecular target: T2, B7-H6; experiment: ELISA on plate-coated B7-H6 (100 ng/well), three-fold dilutions of B10317 from 100 nM
T2 construct: one of the 'other B7-family proteins'; Commonly known as NCR3LG1
T2 chain: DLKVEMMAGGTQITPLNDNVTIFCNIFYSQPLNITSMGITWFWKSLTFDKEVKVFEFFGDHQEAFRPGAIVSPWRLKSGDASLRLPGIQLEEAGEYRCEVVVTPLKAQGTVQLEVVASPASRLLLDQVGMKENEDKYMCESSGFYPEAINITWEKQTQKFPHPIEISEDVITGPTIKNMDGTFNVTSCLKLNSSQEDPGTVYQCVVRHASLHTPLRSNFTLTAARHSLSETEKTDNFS
Method: (§2) To confirm the specific binding of anti-B7-H4/anti-4-1BB bispecific antibody against B7-H4, B10317 subjected to ELISA test. Microtiter plates were coated with each protein (100 ng/well) at 4° C. overnight, then blocked with 200 μl/well PBSB (1% (w/v) BSA in PBS). Three-fold dilutions of B10317 starting from 100 nM was added to each well and incubated at 37° C. for 1 hours. The plates were washed with PBST (0.05% (v/v) Tween20 in PBS) and then incubate for 1 hours at 37° C. with 100 ul of Anti-Fc HRP (Dilution factor, 1:30000) or Anti-Fab HRP (Dilution factor, 1:20000). The plates were washed with PBST (0.05% (v/v) Tween20 in PBS) and then the plates were developed with TMB substrate and analyzed by spectrophotometer at 450-650 nm.

[4] = molecular target: T3, Recombinant 4-1BB (Monkey) protein (Monkey); experiment: SPR, antibody captured on Protein A chip, 4-1BB 250 nM to 15.625 nM as analyte
T3 construct: also called monkey 4-1BB
Method: (§3) In the SPR experiment, the anti-B7-H4/anti-4-1BB bispecific antibody obtained in Preparation Example 3 was captured on flow-cells 2, 3 and 4, keeping the flow-cell 1 as reference, on a Protein A Chip on which an anti-B7-H4/anti-4-1BB Bispecific antibody (B10317) has been immobilized by amine coupling. Recombinant B7-H4 (Human/Monkey) or 4-1BB (Human/Monkey) protein was flowed across the chip at concentration range from 100 nM to 6.25 nM for B7-H4 or 250 nM to 15.625 nM for 4-1BB at 30 μl/min for 60 seconds, followed by a dissociation phase of 180 seconds. Regeneration was performed with 10 mM Glycine-HCl (pH 1.5).

B7-1 = molecular target: T4, B7-1; experiment: ELISA on plate-coated B7-1 (100 ng/well), three-fold dilutions of B10317 from 100 nM
T4 construct: one of the 'other B7-family proteins'; Commonly known as CD80
T4 chain: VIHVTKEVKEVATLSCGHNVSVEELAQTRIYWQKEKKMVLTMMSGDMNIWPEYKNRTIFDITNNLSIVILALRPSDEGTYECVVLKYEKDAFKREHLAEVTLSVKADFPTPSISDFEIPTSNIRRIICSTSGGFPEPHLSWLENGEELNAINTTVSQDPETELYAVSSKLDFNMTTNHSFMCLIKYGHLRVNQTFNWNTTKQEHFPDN
Method: as §2

[5] = molecular target: T1, human B7-H4 expressed on cells (CHOK-1 …); experiment: FACS on MX-1 cells, FITC anti-human IgG detection; table under the graph prints no unit, x axis is Ab, Log[nM]
Method: (§4) To evaluate the tumor antigen binding property, B10317 bispecific antibody was analyzed for its binding to B7-H4-expressing mammalian cells by FACS. Briefly, B7-H4 positive cells (MX-1 and CAMA-1) were incubated with B10317 antibodies. After wash by FACS buffer (1% BSA in PBS), the FITC-anti-human IgG antibody was added to each well and incubated at 4° C. for 45 min. The MFI of FITC was evaluated by FACS Calibur.

[6] = molecular target: 4-1BB on GloResponse NFκB-luc2/4-1BB Jurkat cells (UniProt Q07011 24-255, limits assumed); experiment: cell-based or functional assay
B7-H2 = molecular target: T5, B7-H2; experiment: ELISA on plate-coated B7-H2 (100 ng/well), three-fold dilutions of B10317 from 100 nM
T5 construct: one of the 'other B7-family proteins'; Commonly known as ICOS ligand
T5 chain: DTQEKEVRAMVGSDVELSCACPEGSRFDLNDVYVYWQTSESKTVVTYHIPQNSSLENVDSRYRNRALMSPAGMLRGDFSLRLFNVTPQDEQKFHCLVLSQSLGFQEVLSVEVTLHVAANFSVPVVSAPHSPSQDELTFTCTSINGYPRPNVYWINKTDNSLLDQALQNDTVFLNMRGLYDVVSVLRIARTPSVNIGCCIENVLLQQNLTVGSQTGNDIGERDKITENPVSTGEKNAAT
Method: as §2

B7-2 = molecular target: T6, B7-2; experiment: ELISA on plate-coated B7-2 (100 ng/well), three-fold dilutions of B10317 from 100 nM
T6 construct: one of the 'other B7-family proteins'; Commonly known as CD86
T6 chain: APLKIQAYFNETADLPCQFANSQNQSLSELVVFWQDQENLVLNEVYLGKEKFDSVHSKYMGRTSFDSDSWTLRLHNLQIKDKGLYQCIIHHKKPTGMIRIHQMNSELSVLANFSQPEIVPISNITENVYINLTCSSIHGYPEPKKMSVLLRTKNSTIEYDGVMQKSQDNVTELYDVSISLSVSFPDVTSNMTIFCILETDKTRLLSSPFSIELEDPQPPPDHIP
Method: as §2

[7] = molecular target: T7, Recombinant B7-H4 (Monkey) protein (Monkey); experiment: SPR, antibody captured on Protein A chip, B7-H4 100 nM to 6.25 nM as analyte
T7 construct: also called monkey B7-H4
Method: as §3

recombinant human B7-H4 = molecular target: T8, recombinant human B7-H4 (human, UniProt Q7Z7D3 29-258, limits assumed); experiment: as above
T8 construct: also called Recombinant B7-H4 (Human)
T8 sequence (looked up): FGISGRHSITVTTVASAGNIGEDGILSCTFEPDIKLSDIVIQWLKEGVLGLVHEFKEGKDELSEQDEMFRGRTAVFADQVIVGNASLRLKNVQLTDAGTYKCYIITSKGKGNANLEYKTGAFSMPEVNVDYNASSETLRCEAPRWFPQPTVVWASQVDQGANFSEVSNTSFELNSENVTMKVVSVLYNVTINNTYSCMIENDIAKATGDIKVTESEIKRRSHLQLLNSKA
Method: as §3

[8] = molecular target: T1, human B7-H4 expressed on cells (CHOK-1 …); experiment: FACS on CAMA-1 cells, FITC anti-human IgG detection; table under the graph prints no unit, x axis is Ab, Log[nM]
Method: as §4

Sequence of 4-1BB on GloResponse NFκB-luc2/4-1BB Jurkat cells (Q07011 24-255 limits assumed): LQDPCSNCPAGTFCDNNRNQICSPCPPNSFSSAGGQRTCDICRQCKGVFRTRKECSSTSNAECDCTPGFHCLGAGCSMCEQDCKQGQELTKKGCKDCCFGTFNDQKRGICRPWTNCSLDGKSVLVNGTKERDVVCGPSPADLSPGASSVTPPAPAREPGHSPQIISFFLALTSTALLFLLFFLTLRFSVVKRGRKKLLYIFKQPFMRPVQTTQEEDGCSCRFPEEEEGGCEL

MFI [1]: 20.1 | MFI [2]: 29 | MFI [3]: 5.95
B1: 73B4F10 (mouse monoclonal anti-B7-H4 antibody) (antibody, V domains shown)
VH: QVQLQQPGTELVKPGASVKLSCKASGYTFTSYWMHWVKQRPGQGLERIGHINPSNGGTNYNEKFKKKATLTVDKSSSTAYMQLSSLTSEDSAVYYCARSEFYYGTVFAYWGQGTLVTVSA
VL: DVLMTQTPLSLPVSLGDQASISCRSSQSIVHGNGNTYLEWYLQKPGQSPKLLIYKVSNRFSGVPDRFSGSGSGTDFTLKISRVEAEDLGVYYCFQGSHDPPTFGGGTKLEIK
notes: Mouse hybridoma antibody, detected with anti-mouse IgG Fc; also called 73B4F10 (from mouse)

MFI [1]: 77.6 | MFI [2]: 463 | MFI [3]: 25.3
B2: 16E3H3 (mouse monoclonal anti-B7-H4 antibody) (antibody, V domains shown)
VH: QIQLVHSGPELKKPGETVKISCKASGYPFTTYGMNWVKQAPGKGLKWMGWIDTYSGVPTYADDFKGRFAFSLETSASTAYLQINNLKNEDTATYFCARRSFWYFDVWGTGTTVTVSS
VL: DVVMTQTPLSLPVSLGDQASISCRSSQSLVHSNGNTYLHWYLQKPGQSPKLLIYKVSNRFSGVPDRFSGSGSGTDFTLKIRRVEAEDLGVYFCSQSTHVPWTFGGGTKLEIK
notes: Mouse hybridoma antibody, detected with anti-mouse IgG Fc; also called 16E3H3 (from mouse); 16E3H3 clone

binding result (B7-H6): no binding (tested: 100 nM) | Kd [4]: 4.01 nM | koff [4]: 0.000899 s⁻¹ | kon [4]: 224000 M⁻¹ s⁻¹ | binding result (B7-1): no binding (tested: 100 nM) | EC50 [5]: 10.3 nM | EC50 (nM) [NF-kB assay], with B-CAG-hB7-H4 MC38 cells [6]: 0.093 nM | EC50 (nM) [NF-kB assay], with CAMA-1 cells [6]: 0.145 nM | EC50 (nM) [NF-kB assay], with HCC1954 cells [6]: 0.647 nM | EC50 (nM) [NF-kB assay], with MDA-MB-468 cells [6]: 0.403 nM | EC50 (nM) [NF-kB assay], with MX-1 cells [6]: 0.184 nM | EC50 (nM) [NF-kB assay], with OVCAR3 cells [6]: 0.288 nM | EC50 (nM) [NF-kB assay], with SK-BR3 cells [6]: 0.234 nM | Fold of Induction [NF-kB assay], with B-CAG-hB7-H4 MC38 cells [6]: 76.1 fold | Fold of Induction [NF-kB assay], with CAMA-1 cells [6]: 44.3 fold | Fold of Induction [NF-kB assay], with CHOK1 cells (B7-H4 negative) [6]: 1.49 fold | Fold of Induction [NF-kB assay], with HCC1954 cells [6]: 3.01 fold | Fold of Induction [NF-kB assay], with MC38 cells (B7-H4 negative) [6]: 2.32 fold | Fold of Induction [NF-kB assay], with MDA-MB-468 cells [6]: 6.74 fold | Fold of Induction [NF-kB assay], with MX-1 cells [6]: 62.9 fold | Fold of Induction [NF-kB assay], with OVCAR3 cells [6]: 5.02 fold | Fold of Induction [NF-kB assay], with PANC1 cells (B7-H4 negative) [6]: 1.11 fold | Fold of Induction [NF-kB assay], with SK-BR3 cells [6]: 30.8 fold | binding result (B7-H2): no binding (tested: 100 nM) | binding result (B7-2): no binding (tested: 100 nM) | Kd [7]: 4.53 nM | koff [7]: 0.00278 s⁻¹ | kon [7]: 614000 M⁻¹ s⁻¹ | Kd (recombinant human B7-H4): 4.36 nM | koff (recombinant human B7-H4): 0.00225 s⁻¹ | kon (recombinant human B7-H4): 517000 M⁻¹ s⁻¹ | EC50 [8]: 6.46 nM
B3: 16E3H3 M1 x 1A10 M12 anti-B7-H4/anti-4-1BB bispecific antibody (bispecific antibody, human IgG1, kappa, N297A)
heavy: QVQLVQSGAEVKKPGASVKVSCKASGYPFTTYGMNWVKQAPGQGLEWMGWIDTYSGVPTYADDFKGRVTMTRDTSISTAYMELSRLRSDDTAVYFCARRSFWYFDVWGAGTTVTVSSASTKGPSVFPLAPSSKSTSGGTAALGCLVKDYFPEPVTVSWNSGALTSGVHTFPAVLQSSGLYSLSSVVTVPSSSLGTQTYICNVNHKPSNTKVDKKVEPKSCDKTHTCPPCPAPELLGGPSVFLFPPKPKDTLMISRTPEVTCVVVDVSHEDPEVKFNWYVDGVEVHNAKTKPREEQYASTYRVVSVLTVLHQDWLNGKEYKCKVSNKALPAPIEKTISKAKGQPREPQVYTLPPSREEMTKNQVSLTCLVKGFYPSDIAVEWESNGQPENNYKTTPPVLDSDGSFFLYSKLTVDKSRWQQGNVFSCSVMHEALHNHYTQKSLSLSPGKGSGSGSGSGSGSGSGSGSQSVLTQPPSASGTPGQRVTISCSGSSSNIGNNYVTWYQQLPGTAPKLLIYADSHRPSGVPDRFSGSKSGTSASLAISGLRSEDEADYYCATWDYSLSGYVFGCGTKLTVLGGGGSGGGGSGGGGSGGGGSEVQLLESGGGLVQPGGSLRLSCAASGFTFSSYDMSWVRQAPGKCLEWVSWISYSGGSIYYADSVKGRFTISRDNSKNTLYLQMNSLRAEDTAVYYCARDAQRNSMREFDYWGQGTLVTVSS
light: DVVMTQSPLSLPVTLGQPASISCRSSQSLVHSNANTYLHWYLQRPGQSPRLLIYKVSNRFSGVPDRFSGSGSGTDFTLKISRVEAEDVGVYFCSQSTHVPWTFGGGTKVEIKRTVAAPSVFIFPPSDEQLKSGTASVVCLLNNFYPREAKVQWKVDNALQSGNSQESVTEQDSKDSTYSLSSTLTLSKADYEKHKVYACEVTHQGLSSPVTKSFNRGEC
notes: IgG-scFv format: anti-B7-H4 IgG1 (N297A) heavy chain, (GS)9 linker, anti-4-1BB scFv 1A10 M12 (VL-(GGGGS)4-VH) at the C-terminus; also called B10317; 16E3H3 M1×1A10M12

MFI [1]: 22 | MFI [2]: 47.4 | MFI [3]: 7.85
B4: 23B6C2 (mouse monoclonal anti-B7-H4 antibody) (antibody, V domains shown)
VH: QVTLKESGPGILQPSQTLSLTCSFSGFSLSTFGMGVGWIRQPSGKGLEWLAHIWWDDDKYYNSALKSRLTISKETSKNQIFLKIANVDTTDTATYYCVRKDYYGYRGFAYWGQGTLVTVSA
VL: QLVLTQSSSASFSLGASAKLTCTLSSQHTTYTIEWYQQQPLKPPKYVMELKKDGSHSTGDGIPDRFSGSSSGADRYLCISNIQPEDEAIYICGVGDTIKEQFVYVFGGGTKVTVL
notes: Mouse hybridoma antibody, detected with anti-mouse IgG Fc; also called 23B6C2 (from mouse)
